Assay results from publication PMC8219737, “Direct activation of the proton channel by albumin leads to human sperm capacitation and sustained release of inflammatory mediators by neutrophils” (Nature Communications, 2021).

Target: the molecule itself
Test: smTIRF single-molecule photobleaching (subunit counting); hHv1-G199L-TFP particles at the surface of live HEK293T cells; bleaching steps of TFP counted

B1: hHv1-G199L-TFP (natural protein, human, UniProt Q96D96-1 1-273, looked up)
chain: MATWDEKAVTRRAKVAPAERMSKFLRHFTVVGDDYHAWNINYKKWENEEEEEEEEQPPPTPVSGEEGRAAAPDVAPAPGPAPRAPLDFRGMLRKLFSSHRFQVIIICLVVLDALLVLAELILDLKIIQPDKNNYAAMVFHYMSITILVFFMMEIIFKLFVFRLEFFHHKFEILDAVVVVVSFILDIVLLFQEHQFEALLLLILLRLWRVARIINGIIISVKTRSERQLLRLKQMNVQLAAKIQHLEFSCSEKEQEIERLNKLLRQHGLLGEVN
notes: also used for the patch-clamp (functional) rows of hHv1-G199L; source: HEK293T, transfected, on live cells; not shown: teal fluorescent protein (TFP, via a 13-residue linker), C-terminal, kept
Question: How did the “stoichiometry N” value turn out when B1 was run?
Answer: Its value is 2 subunits per particle.
